Assay results from the RNAGym collection of RNA variant scans (doi:10.1073/pnas.2313332121).
This sample holds only a part of the variants without activity.

B1: TPR 5TU (parent)
chain: GGAUCUUCUCGAUCUAACAAAAAAGACAAAUCUGCCACAAAGCUUGAGAGCAUCUUCGGAUGCAGAGGCGGCAGCCUUCGGUGGCGCGAUAGCGCCAACGUUCUCAACUAUGACACGCAAAACGCGUGCUCCGUUGAAUGGAGUUUAUCAUG

Variants of: B1
Experiment: polymerase ribozyme fitness, log enrichment relative to wild type (log ratio); higher = more active; in vitro selection for triplet polymerase activity
Procedure, shortened: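 After PCR construction and transcription, each subunit's mutant library from a heterodimeric triplet polymerase ribozyme was annealed with a biotinylated primer, the partner subunit and triplets. Incubation was frozen, at −7 °C, and extended constructs were gel-excised, bound to streptavidin beads and amplified by RT-PCR, in one selection round done in triplicate. Fitness is the logarithm of a genotype's enrichment divided by that of the wild type, from inverse-variance-weighted replicate averages of Illumina-sequenced inputs and outputs. The base of the logarithm is 2, and genotypes needed ≥10 input reads and ≥1 read per output.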

Row | Variant | polymerase ribozyme fitness (log ratio)
1 | C99U G141A | -0.231
2 | C125U U148G | ≤ -4.2
3 | U104G C118A A122C | -2.35
4 | G143C | -1.78
5 | G143A | -0.315
6 | G143U | -1.84
7 | G141U U146A | 0.37
8 | A110C G136U | ≤ -4.2
9 | C114A C132U G133C | -3.96
10 | A119G C125A | 0.204
11 | C108A A121U | ≤ -4.2
12 | C108U G136U | -3.41
13 | G133C U144C C149U | -3.98
14 | U134A | -2.25
15 | U134G | -2.37
16 | U134C | 0.0692
17 | A120C G141C | -0.144
18 | U111A G124A U135C | -3.76
19 | C125U U146G | -1.15
20 | U102G G152U | ≤ -4.2
21 | C105U | 0.527
22 | C105A | -0.411
23 | C105G | -0.829
24 | C105U A106C | 0.388

Row | Variant | polymerase ribozyme fitness (log ratio)
25 | C116A G140U | -4.02
26 | G141A A147C | -3.63
27 | C132U U139G G140A | 1.22
28 | C105U G124U | -0.374
29 | C125A U148C | -3.48
30 | C125A U148A | -3.93
31 | A119U U139C | -3.94
32 | C123A C132G | -3.17
33 | G136C U146C | -2.93
34 | C116U G141U | 1.29
35 | A138C U144G | -3.7
36 | U102G A120U | -1.94
37 | C125A U134C U148A G152A | -4.13
38 | A115C G124U U144G | -3.11
39 | A147G | -0.913
40 | A147C | 0.176
41 | A147U | 1.1
42 | C99U G126U | -0.0913
43 | U139G C149G | -3.88
44 | G133U U135A U139G U144G A150U | -4.1
45 | C125U U145C | -0.634
46 | C105U A138U | -2.82
47 | C108U C114U | -4.06
48 | A106G A120U A121G A122G G143C | -2.43

Row | Variant | polymerase ribozyme fitness (log ratio)
49 | A121G G143A A147U | -1.46
50 | A121C C123A U127C | -1.91
51 | G136U G143C | -3.26
52 | G152C | -2.58
53 | G152U | -2.19
54 | G152A | -1.77
55 | A107U G141C | -3.87
56 | U104G A142G G152U | -3.73
57 | U101G A138U | -3.25
58 | C99U G126A G143U | -3.55
59 | G124U G136A | 0.382
60 | U109G A110C | ≤ -4.2
61 | G128A G133U | -4
62 | U134C U144G | 0.895
63 | C103U | -0.357
64 | C103G | -1.4
65 | C103A | -1.23
66 | U102G G141C | -3.94
67 | U146C U151G | ≤ -4.2
68 | G124U U134G | -2.98
69 | C99U G143C | -2.66
70 | G117C | 0.422
71 | G117U | -0.0156
72 | G117A | 0.231

Row | Variant | polymerase ribozyme fitness (log ratio)
73 | G140U G141C | -3.07
74 | C99U G117C | 0.786
75 | C108U G133U | -3.96
76 | C103U U134A | -2.39
77 | G126U U135C | -1.61
78 | A119U U134A | -2.99
79 | C103A A107U U134A | ≤ -4.2
80 | C149U A150G | -2.95
81 | U101G A120G | -0.0391
82 | C105U G140A | -2.92
83 | A121C A137U A147G | ≤ -4.2
84 | U144C | 0.0778
85 | U144A | -0.043
86 | U144G | 0.948
87 | C114G G124C | -4.13
88 | U109G U139C A142U | -3.41
89 | G143A U145A | -2.03
90 | G133U U135G | -4.04
91 | U102C C131U U134G | -4.13
92 | C131A A138C U139G | -3.67
93 | U144A U145A | -0.541
94 | U127G G140A | -4.15
95 | G133U U148G | -4.1
96 | U104C C116G | 0.144

Row | Variant | polymerase ribozyme fitness (log ratio)
97 | U127A G128U | -3.18
98 | G100A G124A | ≤ -4.2
99 | G117U G143A | -0.982
100 | C105A C125A | -3.83
101 | U130A | -1.66
102 | U130C | 1.27
103 | U130G | -2.99
104 | A121U G143C | -1.7
105 | A138C A142G | -3.66
106 | G100U A142C | -4.17
107 | C105A U135C | -2.39
108 | C99U U104A U109C A115G | -3.79
109 | A113C U148C | -3.73
110 | U101G G133U | -2.8
111 | U135G A137U U139A U151G | ≤ -4.2
112 | C125U G143U | -3.2
113 | G126A A142C | -3.28
114 | U144C U145C | -0.39
115 | C103G U130A | -4.04
116 | U135G | -3.19
117 | U135A | -0.939
118 | U135C | -1.38
119 | C99U A107U | -3.88
120 | C99U A107G | -4.16

Row | Variant | polymerase ribozyme fitness (log ratio)
121 | U109A G124A G140C | ≤ -4.2
122 | U104G A120C | 0.532
123 | U104C A106G | -0.701
124 | C129G G143A | -2.23
125 | C103A A107C A142C | ≤ -4.2
126 | A106U U135A A150U | -1.22
127 | C118G A142G | -1.54
128 | G124A | -0.246
129 | G124U | -0.432
130 | G124C | -0.922
131 | G112A U148C | -4.13
132 | A110C A121U | -4.04
133 | A107U C118G A147U C149G U151G | ≤ -4.2
134 | G126A G133C U146C | -2.5
135 | A107C A142C | -4.05
136 | C125A | -0.171
137 | C125G | -0.473
138 | C125U | -0.476
139 | U109G C125U C129U | -4.06
